Laboratory results taken from patent US20240156863A1 (MorphoSys, published 2024).

Target: T1, Human CD19 (human, UniProt P15391 20-556)
T1 construct: Endogenous CD19 on the CD19+ cell lines Jeko (JeKo-1), Nalm-6 and Ly7; also called B-lymphocyte antigen CD19; B4
T1 sequence: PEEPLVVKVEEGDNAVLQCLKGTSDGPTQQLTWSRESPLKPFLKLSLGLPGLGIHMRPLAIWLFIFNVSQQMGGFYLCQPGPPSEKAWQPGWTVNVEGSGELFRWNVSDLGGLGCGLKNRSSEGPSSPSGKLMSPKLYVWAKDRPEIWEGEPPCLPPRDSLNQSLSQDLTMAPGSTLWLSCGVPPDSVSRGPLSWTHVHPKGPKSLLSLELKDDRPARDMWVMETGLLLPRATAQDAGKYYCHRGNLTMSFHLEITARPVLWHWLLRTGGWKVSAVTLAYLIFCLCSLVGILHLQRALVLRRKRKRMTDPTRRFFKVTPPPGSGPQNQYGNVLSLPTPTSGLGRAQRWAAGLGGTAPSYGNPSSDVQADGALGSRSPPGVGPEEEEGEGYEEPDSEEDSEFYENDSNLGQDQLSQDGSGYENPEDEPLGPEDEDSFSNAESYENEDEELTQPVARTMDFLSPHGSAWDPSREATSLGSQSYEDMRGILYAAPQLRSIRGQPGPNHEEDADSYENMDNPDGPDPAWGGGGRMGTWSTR
Assay: Pre-incubation of CD19+ Nalm-6 or Jeko cells, then flow cytometry with FMC63 as competitor
Experimental: FIG. 2: Clone FMC63 (CD19 binding domain in CART19) and tafasitamab compete for CD19 binding. After 4 hours of treatment of Jeko cells with 2 or 0.5 mg/mL of tafasitamab, flow cytometry using the FMC63 anti-CD19 antibody was performed.
It was studied, whether the observed CART19 activity may be influenced by tafasitamab in case of a direct CD19 binding competition between tafasitamab and the CAR. To first test for such binding competition, the CD19+ cell lines Nalm-6 or Jeko were incubated with 2 or 0.5 mg/mL tafasitamab, to saturate the receptors. […] To investigate for any potential impact of such binding competition on CART19 cell effector functions, tafasitamab was incubated with target cells (CD19+ cell lines Jeko, Ly7 or Nalm-6) at increasing concentrations and then CART19 cells were added at different effector: target ratios (0.1:1 to 10:1), without other effector cells to the cell culture.

- binding result: binds
B1: tafasitamab (antibody, human IgG1, kappa, V domains shown)
VH: EVQLVESGGGLVKPGGSLKLSCAASGYTFTSYVMHWVRQAPGKGLEWIGYINPYNDGTKYNEKFQGRVTISSDKSISTAYMELSSLRSEDTAMYYCARGTYYYGTRVFDYWGQGTLVTVSS
VL: DIVMTQSPATLSLSPGERATLSCRSSKSLQNVNGNTYLYWFQQKPGQSPQLLIYRMSNLNSGVPDRFSGSGSGTEFTLTISSLEPEDFAVYYCMQHLEYPITFGAGTKLEIKR
notes: Fc-enhanced, humanized monoclonal anti-CD19 antibody; also called MOR00208; MOR208
